Drawing on PMC6245935, “Fructose-1,6-bisphosphate aldolase encoded by a core gene of Mycoplasma hyopneumoniae contributes to host cell adhesion” (Veterinary Research, 2018), this text covers Kd and kon for one molecule.

For the assay, the target named is fibronectin (UniProt P02751 32-2477). Description: SPR; BIAcore X100 Plus; fibronectin amine-coupled to CM5 chip (2868 RU); rFBA analyte 0-100 ug/mL in HBS-EP (10 mM HEPES, 150 mM NaCl, 3 mM EDTA, 0.05% P20), 30 uL/min, 180 s association, 1000 s dissociation, 20 °C. Particulars: both partners purified. (SPR reads the build-up and loss of mass on a sensor chip optically.)
Chain of fibronectin (P02751 32-2477): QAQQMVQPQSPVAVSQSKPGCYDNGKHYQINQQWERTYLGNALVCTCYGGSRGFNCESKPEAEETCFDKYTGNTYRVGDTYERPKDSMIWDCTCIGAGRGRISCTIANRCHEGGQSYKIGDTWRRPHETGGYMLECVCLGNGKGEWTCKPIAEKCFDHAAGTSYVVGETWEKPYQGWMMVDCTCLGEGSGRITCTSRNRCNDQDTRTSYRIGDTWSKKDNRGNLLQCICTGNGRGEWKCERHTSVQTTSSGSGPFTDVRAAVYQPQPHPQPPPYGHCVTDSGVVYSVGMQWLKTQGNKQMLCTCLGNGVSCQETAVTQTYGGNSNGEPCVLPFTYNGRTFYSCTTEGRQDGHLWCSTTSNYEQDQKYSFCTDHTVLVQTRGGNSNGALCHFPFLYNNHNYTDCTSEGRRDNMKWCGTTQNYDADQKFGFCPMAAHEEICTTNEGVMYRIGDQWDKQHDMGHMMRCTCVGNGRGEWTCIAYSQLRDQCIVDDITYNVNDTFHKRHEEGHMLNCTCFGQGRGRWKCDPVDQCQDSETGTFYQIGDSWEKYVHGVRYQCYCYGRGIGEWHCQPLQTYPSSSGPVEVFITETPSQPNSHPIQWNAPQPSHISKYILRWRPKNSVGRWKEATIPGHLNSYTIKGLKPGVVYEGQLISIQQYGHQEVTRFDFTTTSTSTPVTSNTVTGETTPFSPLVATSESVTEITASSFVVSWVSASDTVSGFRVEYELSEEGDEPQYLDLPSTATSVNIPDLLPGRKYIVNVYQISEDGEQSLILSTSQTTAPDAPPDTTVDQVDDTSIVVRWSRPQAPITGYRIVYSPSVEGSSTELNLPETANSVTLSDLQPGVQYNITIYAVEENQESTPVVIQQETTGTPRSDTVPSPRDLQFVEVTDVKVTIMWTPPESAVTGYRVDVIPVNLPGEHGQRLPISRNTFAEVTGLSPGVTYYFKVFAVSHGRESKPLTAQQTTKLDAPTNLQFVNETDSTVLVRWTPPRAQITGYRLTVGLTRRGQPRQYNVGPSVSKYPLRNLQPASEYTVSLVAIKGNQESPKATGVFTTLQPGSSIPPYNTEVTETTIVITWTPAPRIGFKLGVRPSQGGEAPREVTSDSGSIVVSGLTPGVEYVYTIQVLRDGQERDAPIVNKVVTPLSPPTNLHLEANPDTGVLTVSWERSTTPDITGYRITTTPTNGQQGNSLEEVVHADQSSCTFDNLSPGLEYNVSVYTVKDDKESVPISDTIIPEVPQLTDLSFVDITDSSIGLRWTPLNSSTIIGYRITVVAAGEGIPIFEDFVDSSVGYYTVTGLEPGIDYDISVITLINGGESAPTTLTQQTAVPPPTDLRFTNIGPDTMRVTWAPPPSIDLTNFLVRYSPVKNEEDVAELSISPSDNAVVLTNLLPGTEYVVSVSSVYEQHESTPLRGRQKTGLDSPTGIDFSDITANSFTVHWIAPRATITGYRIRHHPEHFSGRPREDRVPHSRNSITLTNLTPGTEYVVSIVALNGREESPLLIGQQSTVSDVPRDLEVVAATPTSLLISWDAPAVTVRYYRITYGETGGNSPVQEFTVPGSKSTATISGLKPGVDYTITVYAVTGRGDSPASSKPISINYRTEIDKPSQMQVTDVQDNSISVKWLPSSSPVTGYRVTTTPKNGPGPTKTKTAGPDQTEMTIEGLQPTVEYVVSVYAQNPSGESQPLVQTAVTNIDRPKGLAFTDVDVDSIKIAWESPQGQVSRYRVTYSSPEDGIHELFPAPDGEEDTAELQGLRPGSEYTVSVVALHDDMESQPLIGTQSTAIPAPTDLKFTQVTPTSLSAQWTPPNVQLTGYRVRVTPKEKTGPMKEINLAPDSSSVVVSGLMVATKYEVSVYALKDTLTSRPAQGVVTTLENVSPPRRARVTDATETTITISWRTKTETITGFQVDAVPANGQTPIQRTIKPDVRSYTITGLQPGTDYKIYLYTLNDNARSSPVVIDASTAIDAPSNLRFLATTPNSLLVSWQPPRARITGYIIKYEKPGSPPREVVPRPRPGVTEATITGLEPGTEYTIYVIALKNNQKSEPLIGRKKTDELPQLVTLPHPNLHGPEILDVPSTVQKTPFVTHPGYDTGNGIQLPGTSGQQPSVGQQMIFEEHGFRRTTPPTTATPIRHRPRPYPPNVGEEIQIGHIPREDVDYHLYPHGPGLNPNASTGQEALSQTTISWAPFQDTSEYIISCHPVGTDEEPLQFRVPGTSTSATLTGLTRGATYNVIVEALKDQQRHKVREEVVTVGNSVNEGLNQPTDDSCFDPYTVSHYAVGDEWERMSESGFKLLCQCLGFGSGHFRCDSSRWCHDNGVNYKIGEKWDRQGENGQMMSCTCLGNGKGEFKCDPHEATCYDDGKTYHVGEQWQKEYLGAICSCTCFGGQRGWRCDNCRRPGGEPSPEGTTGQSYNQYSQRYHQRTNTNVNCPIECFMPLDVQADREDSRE

B1: recombinant fructose-1,6-bisphosphate aldolase (rFBA) of Mycoplasma hyopneumoniae strain 168 (enzyme)
chain: MKTIISIAIDFLKNRESAHFSDIFLEVQTSLMSKWENQLPNLSTDKILTLKRGELYKLLSIDGNFVPLGDNYWTLRSDLNALVFFFFFFLKVFDCKKKKKKYRKGKMQLVNTKEMLEKALKNNYAIPHININNLEWTKAALLAAQAKKSPLIIGTSERVLTYMGGLKTIYNLVTNLIDYFKITVPVALHLDHGTYLTCKEALKNGYTSVMYDGSKEKFELNLERTEEIVRLANKVNATVEAEVGQIGGEEDGVIGNGEIANPENAKKITETGITCLAAGIGNIHGIYPPDWKSLNFEILEKISKVTKIPLVLHGGSGIPKDQIQKAIKLGIAKINVNTELQQANAAAISEFVLSGKVKQGKNFDPRKLLAPGTDAIQLLIEEKITEFGSANQA
notes: Fructose-1,6-bisphosphate aldolase (FBA) of Mycoplasma hyopneumoniae strain 168, full-length fba gene, locus MHP168_014, GenBank ADQ90241.1; The gene was cloned by site-directed mutation and overlap extension PCR 'due to the existence of rare codons'; also called fructose-bisphosphate aldolase; source: Escherichia coli BL21 (DE3), purified by Ni-chelating chromatography
Take B1: the Kd (as a rule, the equilibrium constant for the complex coming apart) came to 468 ± 23 nM and the kon (usually the rate constant with which the complex forms) was found to be 3470 ± 580 M⁻¹ s⁻¹.
